Source: paper PMC6405930, “Conservation of the Amyloid Interactome Across Diverse Fibrillar Structures” (Scientific Reports, 2019)

B1: Amyloid-like protein 1: CSF protein bound to fibrils (protein, UniProt P51693 39-650, looked up)
Amyloid beta precursor like …: SLAGGSPGAAEAPGSAQVAGLCGRLTLHRDLRTGRWEPDPQRSRRCLRDPQRVLEYCRQMYPELQIARVEQATQAIPMERWCGGSRSGSCAHPHHQVVPFRCLPGEFVSEALLVPEGCRFLHQERMDQCESSTRRHQEAQEACSSQGLILHGSGMLLPCGSDRFRGVEYVCCPPPGTPDPSGTAVGDPSTRSWPPGSRVEGAEDEEEEESFPQPVDDYFVEPPQAEEEEETVPPPSSHTLAVVGKVTPTPRPTDGVDIYFGMPGEISEHEGFLRAKMDLEERRMRQINEVMREWAMADNQSKNLPKADRQALNEHFQSILQTLEEQVSGERQRLVETHATRVIALINDQRRAALEGFLAALQADPPQAERVLLALRRYLRAEQKEQRHTLRHYQHVAAVDPEKAQQMRFQVHTHLQVIEERVNQSLGLLDQNPHLAQELRPQIQELLHSEHLGPSELEAPAPGGSSEDKGGLQPPDSKDDTPMTLPKGSTEQDAASPEKEKMNPLEQYERKVNASVPRGFPFHSSEIQRDELAPAGTGVSREAVSGLLIMGAGGGSLIVLSMLLLRRKKPYGAISHGVVEVDPMLTLEEQQLRELQRHGYENPTYRFLEERP
B2: α2-HS-glycoprotein: CSF protein bound to fibrils (protein, UniProt P02765 19-300; P02765 341-367, looked up)
Alpha-2-HS-glycoprotein chain … 1: APHGPGLIYRQPNCDDPETEEAALVAIDYINQNLPWGYKHTLNQIDEVKVWPQQPSGELFEIEIDTLETTCHVLDPTPVARCSVRQLKEHAVEGDCDFQLLKLDGKFSVVYAKCDSSPDSAEDVRKVCQDCPLLAPLNDTRVVHAAKAALAAFNAQNNGSNFQLEEISRAQLVPLPPSTYVEFTVSGTDCVAKEATEAAKCNLLAEKQYGFCKATLSEKLGGAEVAVTCMVFQTQPVSSQPQPEGANEAVPTPVVDPDAPPSPPLGAPGLPPAGSPPDSHVL
Alpha-2-HS-glycoprotein chain … 2: TVVQPSVGAAAGPVVPPCPGRIRHFKV
B3: Calsyntenin-1: CSF protein bound to fibrils (protein, UniProt O94985 29-981, looked up)
Calsyntenin-1: ARVNKHKPWLEPTYHGIVTENDNTVLLDPPLIALDKDAPLRFAESFEVTVTKEGEICGFKIHGQNVPFDAVVVDKSTGEGVIRSKEKLDCELQKDYSFTIQAYDCGKGPDGTNVKKSHKATVHIQVNDVNEYAPVFKEKSYKATVIEGKQYDSILRVEAVDADCSPQFSQICSYEIITPDVPFTVDKDGYIKNTEKLNYGKEHQYKLTVTAYDCGKKRATEDVLVKISIKPTCTPGWQGWNNRIEYEPGTGALAVFPNIHLETCDEPVASVQATVELETSHIGKGCDRDTYSEKSLHRLCGAAAGTAELLPSPSGSLNWTMGLPTDNGHDSDQVFEFNGTQAVRIPDGVVSVSPKEPFTISVWMRHGPFGRKKETILCSSDKTDMNRHHYSLYVHGCRLIFLFRQDPSEEKKYRPAEFHWKLNQVCDEEWHHYVLNVEFPSVTLYVDGTSHEPFSVTEDYPLHPSKIETQLVVGACWQEFSGVENDNETEPVTVASAGGDLHMTQFFRGNLAGLTLRSGKLADKKVIDCLYTCKEGLDLQVLEDSGRGVQIQAHPSQLVLTLEGEDLGELDKAMQHISYLNSRQFPTPGIRRLKITSTIKCFNEATCISVPPVDGYVMVLQPEEPKISLSGVHHFARAASEFESSEGVFLFPELRIISTITREVEPEGDGAEDPTVQESLVSEEIVHDLDTCEVTVEGEELNHEQESLEVDMARLQQKGIEVSSSELGMTFTGVDTMASYEEVLHLLRYRNWHARSLLDRKFKLICSELNGRYISNEFKVEVNVIHTANPMEHANHMAAQPQFVHPEHRSFVDLSGHNLANPHPFAVVPSTATVVIVVCVSFLVFMIILGVFRIRAAHRRTMRDQDTGKENEMDWDDSALTITVNPMETYEDQHSSEEEEEEEEEEESEDGEEEDDITSAESESSEEEEGEQGDPQNATRQQQLEWDDSTLSY
B4: Fibulin-1: CSF protein bound to fibrils (protein, UniProt P23142 30-703, looked up)
Fibulin-1: DVLLEACCADGHRMATHQKDCSLPYATESKECRMVQEQCCHSQLEELHCATGISLANEQDRCATPHGDNASLEATFVKRCCHCCLLGRAAQAQGQSCEYSLMVGYQCGQVFQACCVKSQETGDLDVGGLQETDKIIEVEEEQEDPYLNDRCRGGGPCKQQCRDTGDEVVCSCFVGYQLLSDGVSCEDVNECITGSHSCRLGESCINTVGSFRCQRDSSCGTGYELTEDNSCKDIDECESGIHNCLPDFICQNTLGSFRCRPKLQCKSGFIQDALGNCIDINECLSISAPCPIGHTCINTEGSYTCQKNVPNCGRGYHLNEEGTRCVDVDECAPPAEPCGKGHRCVNSPGSFRCECKTGYYFDGISRMCVDVNECQRYPGRLCGHKCENTLGSYLCSCSVGFRLSVDGRSCEDINECSSSPCSQECANVYGSYQCYCRRGYQLSDVDGVTCEDIDECALPTGGHICSYRCINIPGSFQCSCPSSGYRLAPNGRNCQDIDECVTGIHNCSINETCFNIQGGFRCLAFECPENYRRSAATLQQEKTDTVRCIKSCRPNDVTCVFDPVHTISHTVISLPTFREFTRPEEIIFLRAITPPHPASQANIIFDITEGNLRDSFDIIKRYMDGMTVGVVRQVRPIVGPFHAVLKLEMNYVVGGVVSHRNVVNVHIFVSEYWF
B5: Cystatin-C: CSF protein bound to fibrils (protein, UniProt P01034 27-146, looked up)
Cystatin-C: SSPGKPPRLVGGPMDASVEEEGVRRALDFAVGEYNKASNDMYHSRALQVVRARKQIVAGVNYFLDVELGRTTCTKTQPNLDNCPFHDQPHLKRKAFCSFQIYAVPWQGTMTLSKSTCQDA

How the values were obtained:
Assay in all cases: Fibril incubation with CSF, quantitative MS/MS of bound proteins
FAS4-AD aggregates = test system: T1, FAS4-AD aggregates; type: binding, human; set-up: key to Identification status of CSF protein bound: FAS4-AD: *: Identified, but not quantified; —: Not identified in any of the samples; conditions: symbol cells
T1 construct: aggregates of a mutated version of the FAS1-4 domain of TGFBIp
Protocol: (§1) Plasma and CSF solutions were centrifuged (40,000 g, 20 min) to remove any aggregates. The protein concentration was determined using 280 nm absorbance assuming 1 Abs = 1 mg/mL. […] Control samples (without fibril material) were prepared similarly. All samples were incubated at room temperature for one hour under gentle agitation. Fibrils and fibril-bound proteins were pelleted by centrifugation at 17,000 g for 30 minutes. The supernatant (175 μL) was removed and the aggregate was re-suspended in 175 μL PBS and pelleted again before further preparation for gel analysis and spin-filter assisted digest for quantitative MS/MS.
(§2) The fibril-protein pellets were transferred to spin-filters (0.22 μm), washed twice in PBS (100 μL) and once in 1 M NaCl (100 μL). The fibrils and fibril-bound proteins were dissolved by one-hour incubation in 100 μL 6 M guanidinium chloride followed by elution from the spin-filter. The eluted proteins were loaded onto a 3 kDa MWCO filter unit for filter-assisted unfolding, reduction, alkylation, and trypsin digestion. In brief, samples were washed twice in 8 M urea, once in 8 M urea with 50 mM DTT, once in 8 M urea with 50 mM iodoaceteamide, and twice in 8 M Urea. The filter units were dried by centrifugation (14,000 g in 30 minutes) after every addition. Trypsin digestion was carried out with 0.25 μg sequencing grade trypsin from Sigma Aldrich in 50 mM ammonium bicarbonate overnight at 37 °C. The tryptic peptides were collected by centrifugation, acidified with TFA (0.1%) and micro-purified using POROS R2 column material (Applied Biosystems) packed in P200 pipette tips (Sarstedt).
(§3) LC-MS/MS analyses were performed on an EASY-nLC II system (Thermo Fisher Scientific) connected to a TripleTOF 5600+ mass spectrometer (Sciex) equipped with a NanoSpray III source (Sciex) and operated under Analyst TF 1.6.0 control.
(§4) The micro-purified tryptic peptides were dissolved in 0.1% formic acid, injected and trapped on an in-house packed trap column (2 cm × 100 μm I.D) with RP ReproSil-Pur C18-AQ 3 μm resin (Dr. Maisch GmbH). Peptides were eluted from the trap column and separated on a 15 cm analytical column (75 μm i.d.) packed in-house in a pulled emitter with RP ReproSil-Pur C18-AQ 3 μm resin (Dr. Maisch GmbH). Elution from the analytical column was performed with a linear gradient from 5% to 35% phase B (90% acetonitrile with 0.1% formic acid) over 20 min for protein identification and 50 min for quantitative analysis, respectively.
(§5) All samples were analysed three times, yielding nine MS/MS experiments for each fibril for both plasma and CSF. For the area-based extracted ion chromatogram (XIC) quantification, the acquisition method was set up as an information-dependent acquisition (IDA) experiment collecting up to 25 MS/MS spectra in each 1.6 sec cycle using an exclusion window of 6 sec.
(§6) XIC quantification was based on the average ion intensity of the three most abundant peptides for each protein. Only proteins quantified in at least four out of nine MS/MS experiments per fibril were included in the quantification. The total ion scores were visualized after grouping the proteins according to function (Figure S11).
(§7) For each MS/MS experiment, the ion intensities of the individual proteins were normalized to the total ion intensity of that MS/MS experiment to achieve a relative protein composition. The contribution of each protein was averaged over all nine MS/MS experiments (Tables 1 and 2).

αSN fibrils = αSN fibrils (Homo sapiens, UniProt P37840); type: binding; set-up: key to Identification status of CSF protein bound: αSN: *: Identified, but not quantified; —: Not identified in any of the samples; conditions: for Identification status of CSF protein bound: αSN: symbol cells
Protocol: as §1, §2, §3, §4, §5, §6, §7

Ab2 fibrils = test system: T2, Ab2 fibrils; type: binding, human; conditions: 4:1 w/w CSF protein:fibril
T2 construct: Two structurally distinct fibrils of the Aβ(1–40) peptide associated with AD
Protocol: as §1, §2, §3, §4, §5, §6, §7

Ab1 fibrils = test system: T3, Ab1 fibrils; type: binding, human; conditions: 4:1 w/w CSF protein:fibril
T3 construct: Synthetic amyloid β peptide 1–40 was purchased from Caslo Aps (Lyngby, Denmark); purchased Caslo Aps (Lyngby, Denmark); host or cells: synthetic peptide
Protocol: as §1, §2, §3, §4, §5, §6, §7

glucagon fibrils = target: T4, glucagon fibrils (Homo sapiens, UniProt P01275); type: binding; conditions: 4:1 w/w CSF protein:fibril
T4 construct: fibrils of the peptide hormone glucagon
Protocol: as §1, §2, §3, §4, §5, §6, §7

C-36 fibrils = target: T5, C-36 fibrils (Homo sapiens, UniProt P01009); type: binding; set-up: key to Identification status of CSF protein bound: C-36: *: Identified, but not quantified; —: Not identified in any of the samples; conditions: for Relative composition of CSF proteins bound: C-36: 4:1 w/w CSF protein:fibril
T5 construct: the 36 residue C-terminal fragment of α1-antitrypsin (C-36)
Protocol: as §1, §2, §3, §4, §5, §6, §7

T4 sequence (P01275 53-81 limits assumed): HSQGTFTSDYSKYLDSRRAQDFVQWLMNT
T5 sequence (P01009 383-418 limits assumed): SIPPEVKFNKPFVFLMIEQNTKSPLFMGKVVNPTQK

| Molecule | Identification status of CSF protein bound: FAS4-AD (FAS4-AD aggregates) | Identification status of CSF protein bound: αSN (αSN fibrils) | Relative composition of CSF proteins bound: Ab2 (Ab2 fibrils) | Relative composition of CSF proteins bound: Ab1 (Ab1 fibrils) | Relative composition of CSF proteins bound: Glucagon (glucagon fibrils) | Relative composition of CSF proteins bound: C-36 (C-36 fibrils) | Relative composition of CSF proteins bound: αSN (αSN fibrils; 4:1 w/w CSF protein:fibril) | Identification status of CSF protein bound: C-36 (C-36 fibrils; symbol cells) |
| --- | --- | --- | --- | --- | --- | --- | --- | --- |
| B1 | — | * | 3.4 ± 0.7 % of total protein | 2.8 ± 0.2 % of total protein | 0.6 ± 0.0 % of total protein | 2.0 ± 0.1 % of total protein |  |  |
| B2 | — | * | 1.9 ± 0.6 % of total protein | 1.1 ± 0.0 % of total protein | 0.7 ± 0.2 % of total protein | 3.6 ± 0.7 % of total protein |  |  |
| B3 | — |  | 1.8 ± 0.8 % of total protein |  | 0.4 ± 0.2 % of total protein | 1.2 ± 0.1 % of total protein | 3.1 ± 0.4 % of total protein |  |
| B4 | — | — | 1.3 ± 0.1 % of total protein | 1.4 ± 0.1 % of total protein | 0.3 ± 0.0 % of total protein | 1.2 ± 0.2 % of total protein |  |  |
| B5 | * | * | 6.0 ± 0.6 % of total protein | 3.9 ± 0.4 % of total protein | 0.9 ± 0.0 % of total protein |  |  | * |
